B1: OR4K15 (parent)
chain: GUUAACGGUCAUAGGCCAUGGAAACUAGGAGCACCAUUUCGCUGCCAGUGAAGAAAUGAACAAAGAAAAUCUGGGCCAGGCAGGCAUCAAAAGAAAUAGUCUUGCGCUCAACCAGAAAGUCUGUAAUCAUUUUAAGGGUA

Variants of: B1
Assay: self-cleavage, relative activity (ratio to wild type); higher = more cleavage; in vitro, sequencing; the parent is a self-cleaving ribozyme
Variant A11U A86G has a self-cleavage of 1.35. A13G U97C gave a self-cleavage of 0.78. A11G A96C showed a self-cleavage of 0.82. U12A A36G gave a self-cleavage of 1.05. Variant U12A A36C has a self-cleavage of 1.82. With A13C A116G the self-cleavage was 0.96. With A13G A89C the self-cleavage was 0. For A13G A89G, the self-cleavage was 1.31. For A13C U127C, the self-cleavage was 0.65. A11G A68U gave a self-cleavage of 1.23. With A11G A68G the self-cleavage was 1.13. In the case of A11G A68C, the self-cleavage is reported as 0.39. With A11U A78C the self-cleavage was 0.22. In the case of A11G U130C, the self-cleavage is reported as 0.53. A11G A36G showed a self-cleavage of 0.8. With U12C A82U the self-cleavage was 0.24. U12A A63U gave a self-cleavage of 1.88. Variant A11C A69G has a self-cleavage of 1.7. U12A U70A showed a self-cleavage of 0.56. In the case of A13G U139A, the self-cleavage is reported as 1.51. In the case of A13G G53A, the self-cleavage is reported as 1.11. With U12A A110C the self-cleavage was 0.34. U12A A110U showed a self-cleavage of 1.63. U12C U102C gave a self-cleavage of 1.22. A13G U72A showed a self-cleavage of 0.23. A11U G58A gave a self-cleavage of 0.75. Work on U12C A13G yielded a self-cleavage of 1.16. Work on U12C A13U yielded a self-cleavage of 0.95. A11C A125G showed a self-cleavage of 0.5. With A11U U133C the self-cleavage was 1.36. For A11U U132C, the self-cleavage was 0.89. Variant U12C U139C has a self-cleavage of 1.41. A11G G84U showed a self-cleavage of 0.53. For U12A U43A, the self-cleavage was 1.63. For U12A U43C, the self-cleavage was 0.49. In the case of A11G U139C, the self-cleavage is reported as 2.37. Work on U12A A89G yielded a self-cleavage of 1.57. Work on U12C G99A yielded a self-cleavage of 0.97. A13G A63G gave a self-cleavage of 0.97. In the case of A13G A63U, the self-cleavage is reported as 0.77. With A11G A54G the self-cleavage was 1.01. Work on A11G A33U yielded a self-cleavage of 0.86. With A13G G15U the self-cleavage was 1.33. A11U A92G showed a self-cleavage of 1. A11G G106A gave a self-cleavage of 0.06. Variant A13G C17U has a self-cleavage of 1.46. A11C showed a self-cleavage of 1.41. A11U showed a self-cleavage of 0.87. Variant A11G has a self-cleavage of 0.77. Variant A11U U100A has a self-cleavage of 0.62. In the case of A11U A110U, the self-cleavage is reported as 1.19. A11G U12A gave a self-cleavage of 1.21. Variant U12G A60G has a self-cleavage of 1.59. U12A A52G showed a self-cleavage of 1.14. A11U A91G gave a self-cleavage of 0.78. A11G U97C showed a self-cleavage of 1.42. Work on A11U A66G yielded a self-cleavage of 2.37. In the case of A13G C105A, the self-cleavage is reported as 0.15. For U12C A89G, the self-cleavage was 1.35. In the case of U12C A89U, the self-cleavage is reported as 1.82. In the case of A13G A54G, the self-cleavage is reported as 0.81. Work on A13G A54U yielded a self-cleavage of 0.74. With A11U A82G the self-cleavage was 0.63. Work on A13G A68G yielded a self-cleavage of 0.65. A13G A135G showed a self-cleavage of 0.79. In the case of U12C A60G, the self-cleavage is reported as 1.34. A11G A51G gave a self-cleavage of 1.15. Work on A11U C61A yielded a self-cleavage of 1.92. Variant A11G A92C has a self-cleavage of 0.7. For A13G A92G, the self-cleavage was 1.22. A11C U49C showed a self-cleavage of 1.57. Variant A11G C61G has a self-cleavage of 1. With A13G A110G the self-cleavage was 0.13. In the case of A11U A140U, the self-cleavage is reported as 1.3. For A11U A55G, the self-cleavage was 0.82. U12C C42U showed a self-cleavage of 1.16. With A13G U108C the self-cleavage was 0.05. A13G U108G showed a self-cleavage of 0. Variant A13G U108A has a self-cleavage of 0.12. Variant U12A A111G has a self-cleavage of 0.08. Work on U12A A66G yielded a self-cleavage of 0.9. Work on A13G C77U yielded a self-cleavage of 1.1. A11U A30G gave a self-cleavage of 1.23. For A13C G79U, the self-cleavage was 0.17. A11C U124C gave a self-cleavage of 1.12. With U12C U132A the self-cleavage was 0.67. U12C U132C gave a self-cleavage of 0.2. With U12C G84C the self-cleavage was 0.31. C10U U103C showed a self-cleavage of 1.16. A11G C101U showed a self-cleavage of 0.38. For A13G C32U, the self-cleavage was 1.2. Work on A11U A54U yielded a self-cleavage of 2.18. With A13G G137U the self-cleavage was 1.06. With A11G U72A the self-cleavage was 0.38. Work on A11U G29A yielded a self-cleavage of 0.94. In the case of A11G A59G, the self-cleavage is reported as 0.88. A11G A59U gave a self-cleavage of 0.98. Variant U12C U122C has a self-cleavage of 1.05. A11G A114G showed a self-cleavage of 0.46. Variant A13G U57C has a self-cleavage of 1.18. With A13G U57A the self-cleavage was 1.24. U12C A18C showed a self-cleavage of 0.58. With A11C A78C the self-cleavage was 0.16. For A11G A47G, the self-cleavage was 1.27. Work on A11G U87A yielded a self-cleavage of 1.05. A11G C17A gave a self-cleavage of 0.61. A11U A118G showed a self-cleavage of 0.59. A11U A118U showed a self-cleavage of 0.51. U12C U57C showed a self-cleavage of 1.27. C10U U127C gave a self-cleavage of 0.32. U12A A92G gave a self-cleavage of 1.37. In the case of A11G U103C, the self-cleavage is reported as 0.95. In the case of A13G U122A, the self-cleavage is reported as 0.97. For A13G U122C, the self-cleavage was 0.76. A13G U102C gave a self-cleavage of 1.18. U12C A118U showed a self-cleavage of 0.22. U12C U72C gave a self-cleavage of 0.18. Work on A11G A66G yielded a self-cleavage of 0.88. For A11G A66U, the self-cleavage was 1.45. With U12C U100A the self-cleavage was 0.63. For A11G U39C, the self-cleavage was 0.96. For U12C A64G, the self-cleavage was 0.41. In the case of U12A A54U, the self-cleavage is reported as 1.28. With A13G U131C the self-cleavage was 1.01. Variant A13G G80C has a self-cleavage of 0.19. Variant A13G G80A has a self-cleavage of 0.43. Work on A11G C112U yielded a self-cleavage of 0.05. Work on A11G C112A yielded a self-cleavage of 0.02. U12C C45U gave a self-cleavage of 1.85. Work on U12C U70C yielded a self-cleavage of 1.25. For U12C A116G, the self-cleavage was 0.73. Work on A11G C113G yielded a self-cleavage of 0.04. With C10U U132C the self-cleavage was 1.26. A11C A118G showed a self-cleavage of 2.4. With A11C A118U the self-cleavage was 0.72. Work on A11U U19C yielded a self-cleavage of 1.85. With A11U U19A the self-cleavage was 1.38. With A11C U72C the self-cleavage was 0.13. In the case of A11C U72A, the self-cleavage is reported as 0.17. With A11U A111G the self-cleavage was 0.06. With A11U A111U the self-cleavage was 0.06. In the case of A13G U132C, the self-cleavage is reported as 0.41. Variant A11G U127A has a self-cleavage of 1.17. Variant U12A U38G has a self-cleavage of 1.9. With A13G A126G the self-cleavage was 1.04. Work on U12G U100C yielded a self-cleavage of 1.76. For A13G A116U, the self-cleavage was 0.41. Work on U12C A47G yielded a self-cleavage of 1.3. With U12G U102C the self-cleavage was 1.11. With A13G A59G the self-cleavage was 0.59. Variant A13C A95G has a self-cleavage of 1.32. A11U A60G showed a self-cleavage of 1.16. With U12A A51U the self-cleavage was 1.05. U12A A51G showed a self-cleavage of 0.95. Work on U12C A55G yielded a self-cleavage of 1.34. With U12C A114U the self-cleavage was 0.14. With U12C A114G the self-cleavage was 0.19. For U12C U38A, the self-cleavage was 0.89. With A13G A90U the self-cleavage was 0.25. With A11G U70C the self-cleavage was 0.76. Variant A11G U70A has a self-cleavage of 0.92. Work on U12C A94G yielded a self-cleavage of 1.34. For A11C U37C, the self-cleavage was 0.79. Work on A11G A86G yielded a self-cleavage of 0.76. In the case of A11G A86U, the self-cleavage is reported as 1.82. A11G A135G gave a self-cleavage of 1.41. For A11G A135U, the self-cleavage was 0.99.
